For six variants, response results are on record in article PMC5104429 (2016).

First the molecules themselves.
B1: Flag-tagged wild type LRRK2 (leucine-rich repeat kinase 2) [human] / Full length V5-tagged FADD [not stated] (parent complex)
chain 1: MASGSCQGCEEDEETLKKLIVRLNNVQEGKQIETLVQILEDLLVFTYSERASKLFQGKNIHVPLLIVLDSYMRVASVQQVGWSLLCKLIEVCPGTMQSLMGPQDVGNDWEVLGVHQLILKMLTVHNASVNLSVIGLKTLDLLLTSGKITLLILDEESDIFMLIFDAMHSFPANDEVQKLGCKALHVLFERVSEEQLTEFVENKDYMILLSALTNFKDEEEIVLHVLHCLHSLAIPCNNVEVLMSGNVRCYNIVVEAMKAFPMSERIQEVSCCLLHRLTLGNFFNILVLNEVHEFVVKAVQQYPENAALQISALSCLALLTETIFLNQDLEEKNENQENDDEGEEDKLFWLEACYKALTWHRKNKHVQEAACWALNNLLMYQNSLHEKIGDEDGHFPAHREVMLSMLMHSSSKEVFQASANALSTLLEQNVNFRKILLSKGIHLNVLELMQKHIHSPEVAESGCKMLNHLFEGSNTSLDIMAAVVPKILTVMKRHETSLPVQLEALRAILHFIVPGMPEESREDTEFHHKLNMVKKQCFKNDIHKLVLAALNRFIGNPGIQKCGLKVISSIVHFPDALEMLSLEGAMDSVLHTLQMYPDDQEIQCLGLSLIGYLITKKNVFIGTGHLLAKILVSSLYRFKDVAEIQTKGFQTILAILKLSASFSKLLVHHSFDLVIFHQMSSNIMEQKDQQFLNLCCKCFAKVAMDDYLKNVMLERACDQNNSIMVECLLLLGADANQAKEGSSLICQVCEKESSPKLVELLLNSGSREQDVRKALTISIGKGDSQIISLLLRRLALDVANNSICLGGFCIGKVEPSWLGPLFPDKTSNLRKQTNIASTLARMVIRYQMKSAVEEGTASGSDGNFSEDVLSKFDEWTFIPDSSMDSVFAQSDDLDSEGSEGSFLVKKKSNSISVGEFYRDAVLQRCSPNLQRHSNSLGPIFDHEDLLKRKRKILSSDDSLRSSKLQSHMRHSDSISSLASEREYITSLDLSANELRDIDALSQKCCISVHLEHLEKLELHQNALTSFPQQLCETLKSLTHLDLHSNKFTSFPSYLLKMSCIANLDVSRNDIGPSVVLDPTVKCPTLKQFNLSYNQLSFVPENLTDVVEKLEQLILEGNKISGICSPLRLKELKILNLSKNHISSLSENFLEACPKVESFSARMNFLAAMPFLPPSMTILKLSQNKFSCIPEAILNLPHLRSLDMSSNDIQYLPGPAHWKSLNLRELLFSHNQISILDLSEKAYLWSRVEKLHLSHNKLKEIPPEIGCLENLTSLDVSYNLELRSFPNEMGKLSKIWDLPLDELHLNFDFKHIGCKAKDIIRFLQQRLKKAVPYNRMKLMIVGNTGSGKTTLLQQLMKTKKSDLGMQSATVGIDVKDWPIQIRDKRKRDLVLNVWDFAGREEFYSTHPHFMTQRALYLAVYDLSKGQAEVDAMKPWLFNIKARASSSPVILVGTHLDVSDEKQRKACMSKITKELLNKRGFPAIRDYHFVNATEESDALAKLRKTIINESLNFKIRDQLVVGQLIPDCYVELEKIILSERKNVPIEFPVIDRKRLLQLVRENQLQLDENELPHAVHFLNESGVLLHFQDPALQLSDLYFVEPKWLCKIMAQILTVKVEGCPKHPKGIISRRDVEKFLSKKRKFPKNYMSQYFKLLEKFQIALPIGEEYLLVPSSLSDHRPVIELPHCENSEIIIRLYEMPYFPMGFWSRLINRLLEISPYMLSGRERALRPNRMYWRQGIYLNWSPEAYCLVGSEVLDNHPESFLKITVPSCRKGCILLGQVVDHIDSLMEEWFPGLLEIDICGEGETLLKKWALYSFNDGEEHQKILLDDLMKKAEEGDLLVNPDQPRLTIPISQIAPDLILADLPRNIMLNNDELEFEQAPEFLLGDGSFGSVYRAAYEGEEVAVKIFNKHTSLRLLRQELVVLCHLHHPSLISLLAAGIRPRMLVMELASKGSLDRLLQQDKASLTRTLQHRIALHVADGLRYLHSAMIIYRDLKPHNVLLFTLYPNAAIIAKIADYGIAQYCCRMGIKTSEGTPGFRAPEVARGNVIYNQQADVYSFGLLLYDILTTGGRIVEGLKFPNEFDELEIQGKLPDPVKEYGCAPWPMVEKLIKQCLKENPQERPTSAQVFDILNSAELVCLTRRILLPKNVIVECMVATHHNSRNASIWLGCGHTDRGQLSFLDLNTEGYTSEEVADSRILCLALVHLPVEKESWIVSGTQSGTLLVINTEDGKKRHTLEKMTDSVTCLYCNSFSKQSKQKNFLLVGTADGKLAIFEDKTVKLKGAAPLKILNIGNVSTPLMCLSESTNSTERNVMWGGCGTKIFSFSNDFTIQKLIETRTSQLFSYAAFSDSNIITVVVDTALYIAKQNSPVVEVWDKKTEKLCGLIDCVHFLREVMVKENKESKHKMSYSGRVKTLCLQKNTALWIGTGGGHILLLDLSTRRLIRVIYNFCNSVRVMMTAQLGSLKNVMLVLGYNRKNTEGTQKQKEIQSCLTVWDINLPHEVQNLEKHIEVRKELAEKMRRTSVE
chain 2: MDPFLVLLHSVSSSLSSSELTELKFLCLGRVGKRKLERVQSGLDLFSMLLEQNDLEPGHTELLRELLASLRRHDLLRRVDDFEAGAAAGAAPGEEDLCAAFNVICDNVGKDWRRLARQLKVSDTKIDSIEDRYPRNLTERVRESLRIWKNTEKENATVAHLVGALRSCQMNLVADLVQEVQQARDLQNRSGAMSPMSWNSDASTSEAS

In the first experiment the parent is B1. Put plainly: ELISA (anti-Flag capture, anti-V5 detection); 15 μg of cell extract loaded in each well; parent: 0.61; read off a plot. A general note: In an ELISA, binding on a coated surface is turned into a signal by an enzyme label.
On to chain 1 K544E, for which the response was ~1.2 anti-V5/Total LRRK2.

For the variant chain 1 T1410M, the response is ~1.7 anti-V5/Total LRRK2.

chain 1 G2019S: the response is ~1.2 anti-V5/Total LRRK2.

Consider chain 1 A211V, for which the response is ~0.91 anti-V5/Total LRRK2.

chain 1 R1441C: the response is ~0.75 anti-V5/Total LRRK2.

As for chain 1 I2020T, the response is ~0.77 anti-V5/Total LRRK2.

The next experiment covers variants of B1. The experiment in a line: co-immunoprecipitation (M2-Flag resin), quantified Western blot band intensity; HEK293T cells; Flag-LRRK2 and V5-FADD at a ratio of 4:1; three independent experiments; parent: 1; read off a plot. On the technique in general: Immunoblotting shows a protein as a band on a membrane.
For the variant chain 1 K544E, the response was ~1 norm. to Flag IP.

For chain 1 T1410M, the response was ~2 norm. to Flag IP.

For chain 1 G2019S, the response is ~1.3 norm. to Flag IP.

On to chain 1 A211V, for which the response was ~1.7 norm. to Flag IP.

For the variant chain 1 R1441C, the response is ~1.1 norm. to Flag IP.

With chain 1 I2020T, the response was ~1.6 norm. to Flag IP.
